From article PMC9526445

Molecular target: SpPks1 (sea urchin polyketide synthase, Strongylocentrotus purpuratus) (Strongylocentrotus purpuratus)
Assay: SEC

stoichiometry N: 2
Substance: SpPks1 (sea urchin polyketide synthase, Strongylocentrotus purpuratus) (enzyme)
